Measurements from PMC12742849 (Protein & Cell, 2025).

Experiments:
[1] = target: enolase, native, from Francisella novicida (Francisella novicida); assay: cryo-EM structure
[2] = target: riboflavin biosynthesis protein D (RibD), native, from Francisella novicida (Francisella novicida); assay: cryo-EM structure

Substance	stoichiometry N [1]	stoichiometry N [2]
enolase, native, from Francisella novicida (enzyme)	2	–
riboflavin biosynthesis protein D (RibD), native, from Francisella novicida (enzyme)	–	2
